For assay [1], the target named is HLA-A*01:01/hβ2m complex (empty, peptide-free or peptide-receptive) (human). The assay can be described thus: differential scanning fluorimetry.
Assay [2] has the same target. The experiment in a line: fluorescence polarisation.
For assay [3] the target is unchanged. The experiment in a line: NMR titration.

For the molecule ILDTAGKEEY [NRAS_(55-64) Q61K peptide (…)], the reduction in the population of empty HLA-A*01:01 after 0.5 h with peptide in assay [1] turned out to be 50%. In assay [2], the IC50 worked out at 260 nM. Moreover, in assay [3], the half-life of peptide association (t1/2) is below 3.7 h.
